Literature values in paper PMC9260958.

Biological target: Cys647 (UniProt position 647, LGEVHCGTNVR)
Test: chemical modification (pH dependence of enzyme inactivation kinetics)
Conditions: not stated (the inactivator is not named in the sentence that gives the value)

Protein arginine deiminase 2 (peptidylarginine deiminase 2, PAD2) (Homo sapiens (inferred; not stated in the article))
pKa: ∼8.2
